US9943572B2, “Synergistic glycocalyx treatment compositions and methods” (Microvascular Health Solutions, LLC, priority 2015, dated 2018)

Tests used:
endothelial glycocalyx = test: Exogenous labeled SOD administered to mice, localization; format: in vivo; settings: orally and/or intravenously
Source text: By so doing, the local concentration of SOD at the endothelial glycocalyx is increased, providing added or enhanced (site-directed) protection against oxygen radicals at the endothelial glycocalyx. Thus, in addition to (naturally) produced SOD, which may be synthesized and bound to the endothelium, exogenous or administered SOD can (directly) associate with (bind to) endothelial glycocalyx. Accordingly, introduction and/or administration of SOD can provide site-directed antioxidant activity at the endothelial glycocalyx.

[1] = Catalase administered to mice, concentration in blood vessels; format: in vivo; settings: oral and/or intravenous administration
Source text: Thus, in addition to (naturally) produced […], which may be produced and secreted into the blood stream, exogenous or administered catalase can be absorbed into the blood stream and be available for oxidant scavenging at or adjacent to the endothelial glycocalyx (and SOD bound thereto). Accordingly, introduction and/or administration of catalase can also provide antioxidant activity in blood vessels and/or at the endothelial glycocalyx.

[2] = test system: cultured endothelial cells; test: Labeled glucosamine administered to cultured endothelial cells; format: cell-based
Source text: Indeed, glucosamine can increase synthesis of two main constituents of the endothelial glycocalyx, namely heparan sulfate and hyaluronan. […] Thus, the addition and/or administration of glucosamine can support endothelial glycocalyx production by providing a (necessary and/or rate-limiting) component in the synthesis thereof. Accordingly, glucosamine can be or comprise a molecular precursor of endothelial glycocalyx.

Superoxide dismutase [SOD]
localization of exogenous labeled SOD (endothelial glycocalyx): co-localizes (binds (directly) to) the endothelial glycocalyx

catalase
catalase concentrations in blood vessels [1]: increases catalase concentrations in blood vessels

N[C@H]1C(O)O[C@H](CO)[C@@H](O)[C@@H]1O (stereo partly drawn) [glucosamine, Glucosamine]
incorporation of labeled glucosamine [2]: is incorporated in the glycocalyx
